From publication PMC10786891, “Massively parallel profiling of RNA-targeting CRISPR-Cas13d”
Numbering of substitutions follows the chain as printed. Names may count otherwise.

T1: EsCas13d, nuclease-dead (Eubacterium siraeum, UniProt B0MS50, R295A;H300A;R849A;H854A)
T1 sequence: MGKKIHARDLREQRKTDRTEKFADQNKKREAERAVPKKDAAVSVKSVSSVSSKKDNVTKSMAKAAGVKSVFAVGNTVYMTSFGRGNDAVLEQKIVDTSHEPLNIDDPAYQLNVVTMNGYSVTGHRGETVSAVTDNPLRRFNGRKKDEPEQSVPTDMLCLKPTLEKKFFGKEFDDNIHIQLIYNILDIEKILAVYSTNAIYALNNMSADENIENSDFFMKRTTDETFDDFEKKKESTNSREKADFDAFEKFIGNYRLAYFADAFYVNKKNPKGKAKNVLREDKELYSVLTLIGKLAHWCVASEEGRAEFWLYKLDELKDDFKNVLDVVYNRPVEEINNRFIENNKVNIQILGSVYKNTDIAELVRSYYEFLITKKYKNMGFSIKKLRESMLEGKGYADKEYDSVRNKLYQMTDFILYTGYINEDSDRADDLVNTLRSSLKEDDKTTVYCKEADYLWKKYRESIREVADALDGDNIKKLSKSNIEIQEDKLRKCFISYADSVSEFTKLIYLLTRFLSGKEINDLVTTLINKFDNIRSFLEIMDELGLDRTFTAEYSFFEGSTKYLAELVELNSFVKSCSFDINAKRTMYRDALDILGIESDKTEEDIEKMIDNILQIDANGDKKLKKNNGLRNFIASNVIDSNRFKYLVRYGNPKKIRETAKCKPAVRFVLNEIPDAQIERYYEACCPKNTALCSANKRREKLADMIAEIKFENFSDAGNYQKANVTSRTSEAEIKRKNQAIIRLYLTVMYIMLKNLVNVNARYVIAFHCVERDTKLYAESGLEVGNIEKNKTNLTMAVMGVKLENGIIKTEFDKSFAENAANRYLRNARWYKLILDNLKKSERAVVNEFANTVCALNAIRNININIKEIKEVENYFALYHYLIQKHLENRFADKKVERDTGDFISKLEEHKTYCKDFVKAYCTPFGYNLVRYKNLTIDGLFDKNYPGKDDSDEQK

B1: target 1 insA 3' of 19,insU 3' of 9 (mixed)
RNA 1: CACCCGUGCAAAAAUGCAGGGGUCUAAAACUGAGCGGAUAACCUCUCUAUGG
RNA 2: GGGAAUGGAUCCACAUCUACGAAUUCGUACCAUAAGAGAGGUUAUUCCGCUCACCGAGAUCGGAAGAGCACACGU
B2: target 1 complement block 7-12 (mixed)
RNA 1: B1 RNA 1
RNA 2: GGGAAUGGAUCCACAUCUACGAAUUCGUACCAUAGAGAGCAAUAGCGCUCACCGAGAUCGGAAGAGCACACGU
B3: target 1 insU 3' of 12,insA 3' of 10 (mixed)
RNA 1: B1 RNA 1
RNA 2: B1 RNA 2 with A35G, G36A, A37G, G38A, A39G, G41U, U45A
B4: target 1 U8C,A16G (mixed)
RNA 1: B1 RNA 1
RNA 2: B2 RNA 2 with A36G, C40G, A41U, A42U, U43A, A44C, G45C
B5: target 1 C4G,A9C (mixed)
RNA 1: B1 RNA 1
RNA 2: B2 RNA 2 with C40G, A41U, A42U, U43C, A44U, G45C, C48G
B6: target 1 insC 3' of 16,insG 3' of 10 (mixed)
RNA 1: B1 RNA 1
RNA 2: B1 RNA 2 with A35G, G36A, A37C, A44G, U45A
B7: target 1 insC 3' of 9,insG 3' of 3 (mixed)
RNA 1: B1 RNA 1
RNA 2: GGGAAUGGAUCCACAUCUACGAAUUCGUACCAUAGAGAGGUUACUCCGCUGCACCGAGAUCGGAAGAGCACACGU
B8: target 1 insC 3' of 20,insU 3' of 18 (mixed)
RNA 1: B1 RNA 1
RNA 2: GGGAAUGGAUCCACAUCUACGAAUUCGUACCACUAUGAGAGGUUAUCCGCUCACCGAGAUCGGAAGAGCACACGU
B9: target 1 insA 3' of 21,insG 3' of 21 (mixed)
RNA 1: B1 RNA 1
RNA 2: B8 RNA 2 with C33G, U34A, A35U, U36A
B10: target 1 insA 3' of 19,insA 3' of 15 (mixed)
RNA 1: B1 RNA 1
RNA 2: B1 RNA 2 with G40A, U42G, A44U, U45A
B11: target 1 insU 3' of 20,insC 3' of 1 (mixed)
RNA 1: B1 RNA 1
RNA 2: B1 RNA 2 with A34U, U46C, C48G, G49C, C50U, U51C, C52A, A53C
B12: target 1 U3C,G13A (mixed)
RNA 1: B1 RNA 1
RNA 2: B2 RNA 2 with G39A, C40G, A41U, A42U, U43A, A44U, G45C, U49C
B13: target 1 insU 3' of 18,insU 3' of 4 (mixed)
RNA 1: B1 RNA 1
RNA 2: B1 RNA 2 with A35U, U46C, C48G, G49C, C50U
B14: target 1 insG 3' of 18,insC 3' of 15 (mixed)
RNA 1: B1 RNA 1
RNA 2: B1 RNA 2 with A35G, A39C, G40A, U42G, A44U, U45A
B15: target 1 insG 3' of 6,insU 3' of 4 (mixed)
RNA 1: B1 RNA 1
RNA 2: B7 RNA 2 with C44U, U45C, C47G, G51U
B16: target 1 G12U,A14G (mixed)
RNA 1: B1 RNA 1
RNA 2: B2 RNA 2 with A38G, C40U, A41U, A42U, U43A, A44U, G45C
B17: target 1 insU 3' of 15,insU 3' of 1 (mixed)
RNA 1: B1 RNA 1
RNA 2: B7 RNA 2 with A38U, G39A, U41G, A43U, C44A, G51C, C52A, A53U
B18: target 1 insU 3' of 20,insU 3' of 1 (mixed)
RNA 1: B1 RNA 1
RNA 2: B1 RNA 2 with A34U, U46C, C48G, G49C, C50U, U51C, C52A, A53U
B19: target 1 insU 3' of 22,insG 3' of 22 (mixed)
RNA 1: B1 RNA 1
RNA 2: B8 RNA 2 with C31U, A32G, U34A, A35U, U36A
B20: target 1 U8C,G17A (mixed)
RNA 1: B1 RNA 1
RNA 2: B2 RNA 2 with G35A, C40G, A41U, A42U, U43A, A44C, G45C
B21: target 1 insA 3' of 13,insU 3' of 6 (mixed)
RNA 1: B1 RNA 1
RNA 2: B1 RNA 2 with A35G, G36A, A37G, G38A, A39G, G40A, U46C, C48U
B22: target 1 U10C,U11A (mixed)
RNA 1: B1 RNA 1
RNA 2: B2 RNA 2 with C40G, A42C, U43A, A44U, G45C
B23: target 1 insC 3' of 11,insC 3' of 8 (mixed)
RNA 1: B1 RNA 1
RNA 2: B7 RNA 2 with U42C, A43U, C44A, G48C, C49G, U50C, G51U
B24: target 1 insA 3' of 6,insU 3' of 2 (mixed)
RNA 1: B1 RNA 1
RNA 2: B7 RNA 2 with C44U, U45C, C47A, G51C, C52U
B25: target 1 C6G,C22U (mixed)
RNA 1: B1 RNA 1
RNA 2: B2 RNA 2 with C30U, C40G, A41U, A42U, U43A, A44U, G45C, C46G
B26: target 1 insC 3' of 18,insC 3' of 8 (mixed)
RNA 1: B1 RNA 1
RNA 2: B1 RNA 2 with A35C, U46C
B27: target 1 insU 3' of 15,insA 3' of 11 (mixed)
RNA 1: B1 RNA 1
RNA 2: B1 RNA 2 with A35G, G36A, A37G, G38U, U43A, A44U, U45A
B28: target 1 U8C,A9G (mixed)
RNA 1: B1 RNA 1
RNA 2: B2 RNA 2 with C40G, A41U, A42U, U43G, A44C, G45C
B29: target 1 insG 3' of 8 (mixed)
RNA 1: B1 RNA 1
RNA 2: GGGAAUGGAUCCACAUCUACGAAUUCGUACCAUAGAGAGGUUAUGCCGCUCACCGAGAUCGGAAGAGCACACGU
B30: target 1 insC 3' of 22,insG 3' of 7 (mixed)
RNA 1: B1 RNA 1
RNA 2: B1 RNA 2 with A32C, U33A, A34U, U46C, C47G
B31: target 1 insU 3' of 20,insG 3' of 1 (mixed)
RNA 1: B1 RNA 1
RNA 2: B1 RNA 2 with A34U, U46C, C48G, G49C, C50U, U51C, C52A, A53G
B32: target 1 insU 3' of 21,insC 3' of 9 (mixed)
RNA 1: B1 RNA 1
RNA 2: B1 RNA 2 with A32U, U33A, A34U, U45C
B33: target 1 insG 3' of 9,insU 3' of 2 (mixed)
RNA 1: B1 RNA 1
RNA 2: B7 RNA 2 with C44G, G51C, C52U

Target: T1, EsCas13d, nuclease-dead
Experiment: crRNA (strand 1, pre-loaded); Mg2+; 40 mM Tris-HCl pH 7.5, 150 mM NaCl, 6 mM MgCl2, 1 mM DTT, 0.1% Tween-20, 0.2 mg/ml BSA; 25 C; 10 min per concentration, then washed
Settings: tags: His6-TwinStrep-SUMO cleaved; N-terminal SNAP kept (SNAP-Surface 488); label: 3' end held by stalled T7 RNA polymerase

| Binder | Kd |
| --- | --- |
| B1 | 32.5 ± 3.1 nM |
| B2 | 16.6 ± 0.7 nM |
| B3 | 10.3 ± 0.4 nM |
| B4 | 54 ± 5 nM |
| B5 | 7.2 ± 0.7 nM |
| B6 | 79 ± 15 nM |
| B7 | 7.3 ± 0.5 nM |
| B8 | 6.12 ± 0.3 nM |
| B9 | 40 ± 5 nM |
| B10 | 16.4 ± 1.8 nM |
| B11 | 10.1 ± 1 nM |
| B12 | 37 ± 8 nM |
| B13 | 20.2 ± 1.3 nM |
| B14 | 62 ± 11 nM |
| B15 | 10.6 ± 0.5 nM |
| B16 | 32.7 ± 3 nM |
| B17 | 11.2 ± 0.8 nM |

| Binder | Kd |
| --- | --- |
| B18 | 14.1 ± 1.4 nM |
| B19 | 30.3 ± 2.5 nM |
| B20 | 61 ± 10 nM |
| B21 | 4.15 ± 0.3 nM |
| B22 | 35.7 ± 2.9 nM |
| B23 | ~70 nM |
| B24 | 21 ± 4 nM |
| B25 | 14 ± 1.1 nM |
| B26 | 44.9 ± 3 nM |
| B27 | 27.8 ± 1.7 nM |
| B28 | 13.4 ± 0.6 nM |
| B29 | 12.9 ± 0.5 nM |
| B30 | 16.2 ± 3 nM |
| B31 | 11.8 ± 1.2 nM |
| B32 | 40.1 ± 2.9 nM |
| B33 | 18.9 ± 1.2 nM |
